The target in assay [1] is T1, human c-Met-His (Homo sapiens, UniProt P08581).
T1 construct: His tag (6xHis) (C); made in house; host or cells: 293F cells (Invitrogen, Cat # R790-07); vector pEE6.4; c-Met gene template origene RC217003
Nature of the assay: ELISA binding of c-Met antibody to c-Met antigen. As to conditions: humanized antibody. Here is the method:
This experiment uses enzyme linked immunosorbent assay to detect affinity of c-Met antibody (including supermatant of hybridonma or recombinant expressed monoclonal antibodies) to c-Met antigen in vitro.
Experimental procedures: Coating buffer (PBS; Hyclone, Cat No.: SH30256.01B) was used to dilute antigen (human c-Met-His, example 1) to 2 μg/mL, which was added to a 96-well microplate at 100 μL/well (Costar 9018, Cat No.:03113024) and incubated overnight at 4° C. […] The plate was read with plate reader at 450 nm.
Murine anti-human c-Met monoclonal cell lines were obtained by immunizing mice, fusion of spleen cells, and screening of hybridomas. […] After the first booster immunization, mice serum was collected during 7 to 10 days after each booster immunization, and the titer was detected by ELISA (Methods were described in Example 2).
After immunization, mice with a serum titer higher than 1:10^5 were selected for cell fusion. Mouse B-cells and myeloma cells (SP2/0, ATCC number:CRL-1581™) were prepared respectively in aseptic conditions and counted. […] The next day, positive clones were detected by ELISA (see Methods in Example 2).

Assay [2] deals with T2, c-Met antigen Sema-His (Homo sapiens, UniProt P08581).
T2 construct: Flag (C); His tag (6xHis) (C); made in house; host or cells: 293F cells (Invitrogen, Cat # R790-07); vector pEE6.4; c-Met gene template origene RC217003
Nature of the assay: SPR (BIACore) affinity to c-Met antigen. As to conditions: 1:1 Langmuir model. In kind it is binding. How it is done: The affinity of c-Met antibody to c-Met antigen Sema-His was detected by surface plasmon resonance (SPR) in the invention.
Anti-mouse IgG (GE Life Sciences catalog # BR-1008-38) or anti-human IgG (GE Life Sciences catalog # BR-1008-39) antibodies were respectively diluted to 30 μg/mL and 50 μg/mL by sodium acetate solution pH 5.0 (GE Healthcare, Cat # BR-1003-51). An amino coupling kit (GE Life Sciences, Cat # BR100050) […] the test channels and control channels on a CM5 chip (GE Life Sciences catalog # BR-1000-12), and the coupling level was set at 15000 RU. The c-Met antibody was diluted with Running buffer PBS (Hyclone, Cat # SH30256.01B)+0.05% P20 (GE Life Sciences, Cat # BR-1000-54) to 1.5 μg/mL. Antigen Sema-His was diluted to 200 nM with running buffer, and then diluted at a 1:2 dilution with the same buffer until 0.78 nM was reached. The diluted antibody passed through the test channel for 1 minute at a speed of 30 μL/min, and the antigen passed through the test channels and control channels for 3 minutes at the same speed. 10 minutes after dissociation, the flow speed was adjusted to 10 μL/min, and regeneration buffer was passed through test channels and control channels for 3 minutes. Data was fitted by BiaEvaluation 4.1 after double deduction, and the fitting model was a 1:1 Langmuir model.

This is an account of results in US20200054764A1, “MEDICAL USE OF ANTI-C MET ANTIBODY-CYTOTOXIC DRUG CONJUGATE” (priority 2016, published 2020).

As usually defined, the EC50 is the concentration giving half of the maximal effect. The Kd is the free concentration of one partner at which half of the binding sites on the other are occupied at equilibrium, for simple one-to-one binding. A lower Kd goes with a tighter complex.

T1 sequence (P08581 with tags, fused parts or gaps limits assumed): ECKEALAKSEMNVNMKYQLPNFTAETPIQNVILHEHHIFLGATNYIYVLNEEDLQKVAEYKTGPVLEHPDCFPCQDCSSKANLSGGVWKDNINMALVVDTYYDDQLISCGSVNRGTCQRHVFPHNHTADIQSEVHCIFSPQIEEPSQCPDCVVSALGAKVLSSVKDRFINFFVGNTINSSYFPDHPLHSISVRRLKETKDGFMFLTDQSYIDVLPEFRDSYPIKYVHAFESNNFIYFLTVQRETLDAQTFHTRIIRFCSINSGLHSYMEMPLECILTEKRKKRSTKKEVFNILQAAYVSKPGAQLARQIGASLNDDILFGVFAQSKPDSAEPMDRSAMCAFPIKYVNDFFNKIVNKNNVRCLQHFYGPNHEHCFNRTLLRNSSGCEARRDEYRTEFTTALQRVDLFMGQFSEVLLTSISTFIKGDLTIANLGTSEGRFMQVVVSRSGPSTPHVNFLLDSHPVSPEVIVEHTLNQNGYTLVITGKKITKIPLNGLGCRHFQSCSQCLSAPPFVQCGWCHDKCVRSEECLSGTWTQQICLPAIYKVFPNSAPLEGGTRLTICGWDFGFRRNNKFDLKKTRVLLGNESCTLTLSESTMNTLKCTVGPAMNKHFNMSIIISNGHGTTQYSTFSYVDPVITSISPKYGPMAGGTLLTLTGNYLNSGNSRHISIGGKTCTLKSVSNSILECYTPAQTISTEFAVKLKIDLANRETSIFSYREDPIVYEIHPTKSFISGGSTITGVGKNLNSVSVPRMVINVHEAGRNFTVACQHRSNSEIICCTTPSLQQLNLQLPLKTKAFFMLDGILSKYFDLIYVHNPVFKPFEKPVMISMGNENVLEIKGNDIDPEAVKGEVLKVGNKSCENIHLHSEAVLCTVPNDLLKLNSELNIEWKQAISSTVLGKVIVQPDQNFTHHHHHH
T2 sequence (P08581 with tags, fused parts or gaps limits assumed): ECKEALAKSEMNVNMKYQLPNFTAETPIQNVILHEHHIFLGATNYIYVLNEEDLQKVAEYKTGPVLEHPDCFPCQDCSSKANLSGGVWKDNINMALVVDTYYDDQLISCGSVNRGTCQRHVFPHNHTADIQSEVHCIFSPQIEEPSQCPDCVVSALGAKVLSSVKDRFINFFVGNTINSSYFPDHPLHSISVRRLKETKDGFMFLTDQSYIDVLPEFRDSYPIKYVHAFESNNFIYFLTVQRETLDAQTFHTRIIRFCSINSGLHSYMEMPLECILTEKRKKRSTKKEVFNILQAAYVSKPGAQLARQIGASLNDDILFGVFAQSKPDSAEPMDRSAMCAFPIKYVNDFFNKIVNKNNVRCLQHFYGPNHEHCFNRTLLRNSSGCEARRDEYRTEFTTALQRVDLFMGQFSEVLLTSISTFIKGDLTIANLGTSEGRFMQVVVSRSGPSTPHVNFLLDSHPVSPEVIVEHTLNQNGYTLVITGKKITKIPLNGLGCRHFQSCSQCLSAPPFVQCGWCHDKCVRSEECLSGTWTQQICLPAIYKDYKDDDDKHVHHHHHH

B1: Ab-9 (antibody)
heavy: QVTLKESGPVLVKPTETLTLTCTVSGFSLPNYGVHWVRQPPGKALEWLAVIWSGGSTNYAAAFVSRLRISKDTSKSQVVFTMNNMDPVDTATYYCARNHDNPYNYAMDYWGQGTTVTVSSASTKGPSVFPLAPCSRSTSESTAALGCLVKDYFPEPVTVSWNSGALTSGVHTFPAVLQSSGLYSLSSVVTVPSSNFGTQTYTCNVDHKPSNTKVDKTVERKCCVECPPCPAPPVAGPSVFLFPPKPKDTLMISRTPEVTCVVVDVSHEDPEVQFNWYVDGVEVHNAKTKPREEQFNSTFRVVSVLTVVHQDWLNGKEYKCKVSNKGLPAPIEKTISKTKGQPREPQVYTLPPSREEMTKNQVSLTCLVKGFYPSDIAVEWESNGQPENNYKTTPPMLDSDGSFFLYSKLTVDKSRWQQGNVFSCSVMHEALHNHYTQKSLSLSPGK
light: DIVLTQSPASLAVSPGQRATITCRANKSVSTSTYNYLHWYQQKPGQPPKLLIYLASNLASGVPARFSGSGSGTDFTLTINPVEANDTANYYCQHSRDLPPTFGQGTKLEIKRTVAAPSVFIFPPSDEQLKSGTASVVCLLNNFYPREAKVQWKVDNALQSGNSQESVTEQDSKDSTYSLSSTLTLSKADYEKHKVYACEVTHQGLSSPVTKSFNRGEC
B1 displayed a concentration for a half-maximal effect (EC50) in assay [1] of 0.13 nM. Moreover, binding in assay [2] was characterised by a dissociation constant (Kd) of 4 nM.
